B1: CA163 (antibody, V domains shown)
VH: QVQLVQSGAGASVKVSCKASGNTFTSYGISWVRQAPGQGLEWMGWIIPYNGNTNYAQKFQGRVTMTTDTSTSTAYMELRSLRSDDTAVYYCARDGEVGAFDNYYYYCGYGVIVTTAS
VL: not shown
B2: CA166 (antibody, V domains shown)
VH: EVQLVESGGGLVKPGGSLRLSCAASGFTFSSYSMNWVRQAPGKGLEWVSSISSSSSYIYYADSVKGRFTISRDNAKNSLYLQMNSLRAEDTAVYYCARVMITFGGADYWGQGTLVTVSS
VL: DIQMTQSPSSLSASVGDRVTITCRASQNINTYLNWYQKRPGIAPKLLIYGASSLQSGVPSRFSGSGSGTDFTLTISSLQPEDFATYYCQQYHTSPLTFGGGTPVDIK
B3: CA168 (antibody, V domains shown)
VH: QVQLVQSGAEVKKPGSSVKVSCKASGGTFSSYAISWVRQAPGQGLEWMGGIIPIFGTANYAQKFQGRVTITADKSTSTAYMELSSLRSEDTAVYYCARALTYYDFPDYGMDVWGQGTTVTVSS
VL: QSALTQPPSASGSPGQSVTISCTGTSSDVGGYNYVSWYQQHPGKVPKLMIYEVTKRPSGVPDRFSGSKSGNTASLTVSGLQAEDEADYYCSSYAGSNNLVFGGGTKLTVL
B4: CA169 (antibody, V domains shown)
VH: EVQLVESGGGLVKPGGSLRLSCAASGFTFSSYSMNWVRQAPGKGLEWVSSISSSSSYIYYADSVKGRFTISRDNAKNSLYLQMNSLRAEDTAVYYCASGVLLEAFDYWGQGTLVTVSS
VL: SYVLTQPPSVSVAPGQTARITCGGNNIGSKSVHWYQQKPGQAPVLVVYDDSDRPSGIPERFSGSNSGNTATLTISRVEAGDEADYYCQVWDSSSDHVVFGGGTKLTVL
B5: CA170 (antibody, V domains shown)
VH: EVQLVESGGGLVKPGGSLRLSCAASGFTFSSYSMNWVRQAPGKGLEWVSSISSSSSYIYYADSVKGRFTISRDNAKNSLYLQMNSLRAEDTAVYYCARDRDLLDAFDIWGQGTMVTVSS
VL: SYVLTQPPSVSVAPGQTARITCGGNNIGSKSVHWYQQKPGQAPVLVVYDDSDRPSGIPERFSGSNSGNTATLTISRVEAGDEADYYCQVWDSSSDHPWVFGGGTKLTVL
B6: CA171 (antibody, V domains shown)
VH: EVQLVESGGGLVQPGGSLRLSCAASGFTFSSYSMNWVRQAPGKGLEWVSYISSSSSTIYYADSVKGRFTISRDNAKNSLYLQMNSLRAEDTAVYYCARTFYSNYLDAFDIWGQGTMVTVSS
VL: EIVLTQSPDTLSMCPGERATLSCRASQSVSSYLAWYQQKPGQAPRLLIYDASNRATGIPARFSGSGSGTDFTLTISSLEPEDFAVYYCQQRSNWLSMYTFGQGTKLEIK
B7: CA172 (antibody, V domains shown)
VH: QVQLVESGGGLVKPGGSLRLSCAASGFTFSDYYMSWIRQAPGKGLEWVSYISSSSSYTNYADSVKGRFTISRDNAKNSLYLQMNSLRAEDTAVYYCARALRYFDWYDYWGQGTLVTVSS
VL: EIVLTQSPDFQSVTPKGKVTITCRASQSIGSSLHWYQQKPDQSPKLLIKYASQSFSGVPSRFSGSGSGTEFTLTISSLQPEDFATYYCQQLNSYSPITFGQGTRLEIK
B8: CA173 (antibody, V domains shown)
VH: EVQLVESGGGLVKPGGSLRLSCAASGFTFSSYSMNWVRQAPGEGLEWVSSISSSSTYIYYADSVKGRFTISRDNAKNSLYLQMNSLRAEDTAVYYCARDRPAGSSSLGSGYFDLWGRGTLVTVSS
VL: not shown
B9: CA175 (antibody, V domains shown)
VH: EVQLVESGGGLVQPGGSLRLSCAASGFTFSTYPMNWVRQAPGKGLEWVSYISSSSSTIYYADCVKGRFTISRDNAKNSLYLQMNSLRDEDTAVYYCARYYIAYGMDVWGQGTTVTVSS
VL: DIQMTQSPSSMSASVGDRVTITCRASQGISNYLAWFQQKPGKAPKRLIYGASSLHRGVPSRFSGSGSGTEFTLTITSLQPEDFATYYCLQHNTYPRTFGQGTKVEIK
B10: CA176 (antibody, V domains shown)
VH: QVQLVESGGGVVQPGRSLRLSCAASGFTFSSYGMHWVRQAPGKGLEWVAVISYDGSNKYYADSVKGRFTISRDNSKNTLYLQMNSLRAEDTAVYYCAKDEGSSDFWSGYYASFDYWGQGTLVTVSS
VL: DIQMTQSPISLSASVGDRVTITCRASQDISNYLTWYQQKPGKAPKLLIYAASSLQSGVPSRFSGSGSGTDFTLTISNLQPEDFATYYCQQNYSYPCTFGQGTKVEIK
B11: CA177 (antibody, V domains shown)
VH: RCSCRSRAPGLVKPSETLSLTCTVSGGSISSYYWSWIRQPPGKGLEWIGYIYYSGSTNYNPSLKSRVTISVDTSKNQFSLKLSSVTAADTAVYYCASHDYTDHAAGYWGQGTLVTVSS
VL: not shown
B12: CA178 (antibody, V domains shown)
VH: QVQLVQSGAEVKKPGSSVKVSCKASGGTFSSYAISWVRQAPGQGLEWMGGIIPIFGTANYAQKFQGRVTITADESTSTAYMELSSLRSEDTAVYYCARDYGGSYYYEYFQHWGQGTLVTVSS
VL: not shown
B13: CA180 (antibody, V domains shown)
VH: QVQLVQSGAEVKKPGASVKVSCKASGYTFTSYGISWVRQAPGQGLEWMGWISAYNGNTNYAQKLQGRVTMTTDTSTSTAYMELRSLRSDDTAVYYCARDLGYSSSWYTSNWFDPWGQGTLVTVSS
VL: QSALTQPASVSGSPGQSITISCTGTSSDVGSYNLVSWYQQHPGKAPKLMIYEGSKRPSGVSNRFSGSKSGNTASLTISGLQAEDEADYYCCSYAGSSTVVFGGGTKLTVL

What follows are binders tested against soluble HLA-E-VL9, HLA-E*01:03 heavy chain refolded with β2-microglobulin and synthetic VL9 peptide (Homo sapiens, HLA-E*01:03, strain).

Binding result, binds:
B1
B2
B3
B4
B5
B6
B7
B8
B9
B10
B11
B12
B13

Source: paper PMC8960791 (Communications Biology, 2022)
